From PMC3077455 (Nature, 2011) come the findings set out here.

Sequences and labels used below:
T1: Scm3 residues 93-169, as it stands in the single-chain molecule scSCH (yeast, UniProt Q12334 93-169)
T1 sequence: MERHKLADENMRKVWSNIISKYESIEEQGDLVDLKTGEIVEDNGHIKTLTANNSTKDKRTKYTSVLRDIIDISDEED

B1: Scm3_(83–169) (domain or fragment)
chain: IIPKLTDDEVMERHKLADENMRKVWSNIISKYESIEEQGDLVDLKTGEIVEDNGHIKTLTANNSTKDKRTKYTSVLRDIIDISDEED
B2: single chain Cse4-H4 (His6-KK-Cse4_(151–207)-LVPRGS-H4_(45–103)) (complex)
chain: not shown
B3: Histone H4 residues 42-103, as it stands in the single-chain molecule scSCH (domain or fragment)
chain: not shown

Experiment [1] deals with single chain Cse4-H4 with Cse4 Met181Ser/Met184Gly (budding yeast | , UniProt P36012;P02309, Met181Ser | Met184Gly). In words: ITC. For orientation: Isothermal titration calorimetry measures the heat released or taken up as one component is titrated into another.
In experiment [2] the target is single chain Cse4-H4 with Cse4 Ala189Ser/Ser190Val (budding yeast | , UniProt P36012;P02309, Ala189Ser | Ser190Val). Nature of the experiment: ITC.
In experiment [3] the target is B1. Nature of the experiment: ITC.
The target in experiment [4] is T1, Scm3 residues 93-169, as it stands in …. Nature of the experiment: NMR structure.

For the molecule B1, the “fold reduction of the binding affinity against the wild type” value in experiment [1] came to 5.5 fold; in experiment [2], 9 fold.

Consider B2, for which, in experiment [3], the binding result was “binds”.

Regarding B3, the binding result in experiment [4] is reported as “binds”.
